T1: CD25 (Homo sapiens (Human), UniProt P01589 22-240)
T1 construct: also called IL-2R alpha chain
T1 sequence: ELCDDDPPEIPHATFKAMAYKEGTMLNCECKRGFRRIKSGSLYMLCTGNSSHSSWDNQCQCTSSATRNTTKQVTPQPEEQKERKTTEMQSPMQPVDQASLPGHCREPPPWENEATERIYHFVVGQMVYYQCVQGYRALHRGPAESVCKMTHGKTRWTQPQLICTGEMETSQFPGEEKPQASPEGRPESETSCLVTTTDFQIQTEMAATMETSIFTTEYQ

B1: human IL-2 mutein polypeptide fused N-terminally to human IgG1 Fc domain (SEQ ID NO: 57) (Fc fusion)
chain: APTSSSTKKTQLQLEHLLLDLQMILNGINNYKNPKLTRMLTFKFYMPKKATELKHLQCLEEELKPLEEALNLAPSKNFHLRPRDLISDINVIVLELKGSETTFMCEYADETATIVEFLNRWITFSQSIISTLTGGGGSGGGGSGGGGSGGGGSDKTHTCPPCPAPEAAGAPSVFLFPPKPKDTLMISRTPEVTCVVVDVSHEDPEVKFNWYVDGVEVHNAKTKPREEQYNSTYRVVSVLTVLHQDWLNGKEYKCKVSNKALPAPIEKTISKAKGQPREPQVYTLPPSREEMTKNQVSLTCLVKGFYPSDIAVEWESNGQPENNYKTTPPVLDSDGSFFLYSKLTVDKSRWQQGNVFSCSVMHEALHNHYTQKSLSLSPG
notes: also called IL-2 N88D V69A, Q74P-G4Sx4-Fc
B2: SEQ ID NO 56 (Fc fusion)
chain: B1 chain with L118I
notes: also called IL-2 L118I N88D V69A, Q74P, C125S-G4Sx4-Fc
B3: SEQ ID NO 53 (Fc fusion)
chain: B1 chain with L53I
notes: also called IL-2 L53I N88D V69A, Q74P,C125S-G4Sx4-Fc
B4: SEQ ID NO 55 (Fc fusion)
chain: B1 chain with L80I
notes: also called IL-2 L80I N88D V69A, C125S Q74P-G4Sx4-Fc
B5: SEQ ID NO 54 (Fc fusion)
chain: B1 chain with L56I
notes: also called IL-2 L56I N88D V69A, Q74P, C125S-G4Sx4-Fc

Substitutions are numbered along the chain they refer to. In names and notes the source's numbering stands. Bounds are passed on as bounds.

For the first experiment, the target named is mouse PD-1 on primary mouse T cell blasts (mouse) (UniProt Q02242). The experiment is described as follows: cell-based or functional assay.
Chain of mouse PD-1 on primary mouse T cell blasts (mouse) (Q02242 25-288): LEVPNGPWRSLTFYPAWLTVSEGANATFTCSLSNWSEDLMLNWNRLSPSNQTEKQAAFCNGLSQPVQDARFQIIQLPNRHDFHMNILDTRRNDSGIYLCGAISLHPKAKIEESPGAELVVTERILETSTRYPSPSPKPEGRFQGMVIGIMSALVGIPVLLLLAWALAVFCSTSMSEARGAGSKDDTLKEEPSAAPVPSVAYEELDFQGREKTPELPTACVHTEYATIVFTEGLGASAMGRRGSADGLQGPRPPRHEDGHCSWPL
“PD-L1 (reference in the table of Example 36) (ligand)”: the Mouse agonist-CTG: IC50 came to 2.4 nM.

The target in a further experiment is T1, CD25. The experiment in a line: ELISA, CD25 coated at 0.5 µg/mL, detection with biotinylated anti-IL-2 polyclonal. As to the method:
An immunosorbent plate was coated with CD25 at a concentration of 0.5 μg/mL in PBS pH 7.4, 75 μL/well, and incubated overnight at 4° C. Wells were washed with PBS pH 7.4 containing 0.05% Tween-20 (wash buffer) three times, and then blocked with 200 μL/well 1% BSA in PBS pH 7.4 (block buffer) for two hours at room temperature. After three washes with wash buffer IL-2 muteins SEQ ID NO: 53, SEQ ID NO: 54, SEQ ID NO: 55, SEQ ID NO: 56 were diluted to eleven-two fold serial dilution in PBS containing 1% BSA and 0.05% Tween-20 (assay buffer) with 2 nM being the highest concentration. The diluted material was added to the CD25 coated plate at 75 μL/well for 1 hour at room temperature. After three washes with wash buffer, a goat biotinylated anti-IL-2 polyclonal antibody, diluted to 0.05 μg/mL in assay buffer, was added to the plate at 75 μL/well for 1 hour at room temperature. After three washes with wash buffer high sensitivity streptavidin HRP diluted in assay buffer at 1:5000 was added to the plate at 75 μL/well for 15 minutes at room temperature. After three washes with wash buffer and 1 wash with wash buffer (with no Tween-20), the assay was developed with TMB, and stopped with 1N HCL. OD 450 nm was measured. The experiment included appropriate controls for non-specific binding of the molecules to the plate/block in the absence of CD25. […] Additionally, there was no detection of any compound at any concentration tested, when CD25 was not present on the plate surface, indicating none of the test compounds were interacting non-specifically with the plate surface. Thus, the muteins of Example 19 can bind to CD25.
In general terms: ELISA stands for enzyme-linked immunosorbent assay.
As usually defined, the EC50 is the concentration needed to bring the measured effect to its halfway point. Consider B1, for which the EC50 was less than 1 nM.

B2 registered an EC50 of less than 1 nM. Consider B3, for which the EC50 is less than 1 nM.

For the molecule B4, the EC50 was less than 1 nM. Same read-out and setting: next, B5: less than 1 nM.

(Values after patent US20210269496A1 (PANDION OPERATIONS, published 2021).)
